Reference: US20230293647A1

What was measured:
[1] = molecular target: recombinant full length SARS-CoV-2 spike protein (SARS-CoV-2) (UniProt P0DTC2)
[2] = molecular target: FcγR on K562 cells (reported to express RNA for FcγRIIa and IIIa/b)

Row | Substance | EC50 (read off the curve) [1] | EC50 (read off the curve) [2]
1 | ACE2-CR3022 scFv-Fc (from UniProt Q9BYF1 18-740) (Fc fusion) | 0.09 nM | 
2 | CR3022 scFv-ACE2-Fc (from UniProt Q9BYF1 18-740) (Fc fusion) | 0.06 nM | 
3 | Inactive ACE2 (HH:NN) (18-740)-Fc (Fc fusion) |  | 40 nM
